Consider 8 molecules from patent publication US20240261333A1, “NOVEL TARGETS FOR ENHANCING ANTI-TUMOR IMMUNITY” (THE BROAD INSTITUTE, INC., priority 2021, published 2024).

For the assay, the target named is T1, B3GNT2 (Homo sapiens, UniProt Q9NY97).
T1 construct: The respective ORFs of candidate genes [CD274 (NM_014143), MCL1 (NM_021960), JUNB (NM_002229), and B3GNT2 (NM_006577)] were synthesized; expressed in transfected cells; host or cells: A375 melanoma cells (lentiviral ORF overexpression)
T1 sequence (Q9NY97 1-397): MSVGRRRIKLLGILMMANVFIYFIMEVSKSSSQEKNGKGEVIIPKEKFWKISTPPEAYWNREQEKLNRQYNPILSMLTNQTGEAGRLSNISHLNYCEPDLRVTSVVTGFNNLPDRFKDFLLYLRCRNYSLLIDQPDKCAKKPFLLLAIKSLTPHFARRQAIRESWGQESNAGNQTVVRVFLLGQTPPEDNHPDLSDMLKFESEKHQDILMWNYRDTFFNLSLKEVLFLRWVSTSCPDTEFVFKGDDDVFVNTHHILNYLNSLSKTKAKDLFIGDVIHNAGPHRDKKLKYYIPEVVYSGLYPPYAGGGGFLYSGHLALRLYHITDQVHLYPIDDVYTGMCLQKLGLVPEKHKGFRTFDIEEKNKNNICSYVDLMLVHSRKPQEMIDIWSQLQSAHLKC
Kind of assay: Co-IP of FLAG-tagged B3GNT2 followed by mass spectrometry. It is filed as cell-based. Details: C-term IgG / C-term flag: unit not given here. The note with it: mass spectrometry count, unit not given; for C-term flag / N-term FLAG: Co-IP with FLAG antibody; for C-term flag / C-term IgG: C-terminally FLAG-tagged B3GNT2; for N-term FLAG / N-term IgG: N-terminally FLAG-tagged B3GNT2; for C-term IgG / N-term IgG: Co-IP with IgG control antibody. The method, boiled down: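 Co-purifying proteins were identified by fractionated nano-LC–MS/MS on an Orbitrap Elite, run data-dependent. Beforehand, lysates in 1% Triton X-100/HEPES buffer were incubated overnight at 4° C with anti-FLAG or […] and pulled down on Protein A/G magnetic beads for 4 h. Duplicate biological replicates.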

B1: HLA-A (protein)
MHC heavy: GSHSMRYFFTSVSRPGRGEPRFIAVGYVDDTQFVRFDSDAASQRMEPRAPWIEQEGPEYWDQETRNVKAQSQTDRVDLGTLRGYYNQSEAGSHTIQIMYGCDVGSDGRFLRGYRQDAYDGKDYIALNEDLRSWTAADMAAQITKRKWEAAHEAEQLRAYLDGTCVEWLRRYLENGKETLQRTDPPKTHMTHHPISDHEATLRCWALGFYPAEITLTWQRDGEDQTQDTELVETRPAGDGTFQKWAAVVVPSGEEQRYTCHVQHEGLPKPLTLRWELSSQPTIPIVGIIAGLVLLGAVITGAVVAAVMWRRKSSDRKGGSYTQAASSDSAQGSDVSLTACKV
In the case of B1, the C-term flag came out at 4, the “N-term FLAG” value is listed as 6, the “C-term IgG” value was found to be 0 and the “N-term IgG” value came out at 0.

B2: MYO1D (protein)
chain: AEQESLEFGKADFVLMDTVSMPEFMANLRLRFEKGRIYTFIGEVVVSVNPYKLLNIYGRDTIEQYKGRELYERPPHLFAIADAAYKAMKRRSKDTCIVISGESGAGKTEASKYIMQYIAAITNPSQRAEVERVKNMLLKSNCVLEAFGNAKTNRNDNSSRFGKYMDINFDFKGDPIGGHINNYLLEKSRVIVQQPGERSFHSFYQLLQGGSEQMLRSLHLQKSLSSYNYIHVGAQLKSSINDAAEFRVVADAMKVIGFKPEEIQTVYKILAAILHLGNLKFVVDGDTPLIENGKVVSIIAELLSTKTDMVEKALLYRTVATGRDIIDKQHTEQEASYGRDAFAKAIYERLFCWIVTRINDIIEVKNYDTTIHGKNTVIGVLDIYGFEIFDNNSFEQFCINYCNEKLQQLFIQLVLKQEQEEYQREGIPWKHIDYFNNQIIVDLVEQQHKGIIAILDDACMNVGKVTDEMFLEALNSKLGKHAHFSSRKLCASDKILEFDRDFRIRHYAGDVVYSVIGFIDKNKDTLFQDFKRLMYNSSNPVLKNMWPEGKLSITEVTKRPLTAATLFKNSMIALVDNLASKEPYYVRCIKPNDKKSPQIFDDERCRHQVEYLGLLENVRVRRAGFAFRQTYEKFLHRYKMISEFTWPNHDLPSDKEAVKKLIERCGFQDDVAYGKTKIFIRTPRTLFTLEELRAQMLIRIVLFLQKVWRGTLARMRYKRTKAALTIIRYYRRYKVKSYIHEVARRFHGVKTMRDYGKHVKWPSPPKVLRRFEEALQTIFNRWRASQLIKSIPASDLPQVRAKVAAVEMLKGQRADLGLQRAWEGNYLASKPDTPQTSGTFVPVANELKRKDKYMNVLFSCHVRKVNRFSKVEDRAIFVTDRHLYKMDPTKQYKVMKTIPLYNLTGLSVSNGKDQLVVFHTKDNKDLIVCLFSKQPTHESRIGELVGVLVNHFKSEKRHLQVNVTNPVQCSLHGKKCTVSVETRLNQPQPDFTKNRSGFILSVPGN
With B2, the C-term flag is reported as 2, the “N-term FLAG” value is reported as 0, the “C-term IgG” value was found to be 0 and the “N-term IgG” value turned out to be 0.

B3: SFXN3 (protein)
chain: MGELPLDINIQEPRWDQSTFLGRARHFFTVTDPRNLLLSGAQLEASRNIVQNYRAGVVTPGITEDQLWRAKYVYDSAFHPDTGEKVVLIGRMSAQVPMNMTITGCMLTFYRKTPTVVFWQWVNQSFNAIVNYSNRSGDTPITVRQLGTAYVSATTGAVATALGLKSLTKHLPPLVGRFVPFAAVAAANCINIPLMRQRELQVGIPVADEAGQRLGYSVTAAKQGIFQVVISRICMAIPAMAIPPLIMDTLEKKDFLKRRPWLGAPLQVGLVGFCLVFATPLCCALFPQKSSIHISNLEPELRAQIHEQNPSVEVVYYNKGL
In the case of B3, the C-term flag was 2, the “N-term FLAG” value is on record as 0, the “C-term IgG” value stood at 0 and the “N-term IgG” value is on record as 0.

B4: SLC25A10 (protein)
chain: MAAEARVSRWYFGGLASCGAACCTHPLDLLKVHLQTQQEVKLRMTGMALRVVRTDGILALYSGLSASLCRQMTYSLTRFAIYETVRDRVAKGSQGPLPFHEKVLLGSVSGLAGGFVGTPADLVNVRMQNDVKLPQGQRRNYAHALDGLYRVAREEGLRRLFSGATMASSRGALVTVGQLSCYDQAKQLVLSTGYLSDNIFTHFVASFIAAAGDEPPPQGGCATFLCQPLDVLKTRLMNSKGEYQGVFHCAVETAKLGPLAFYKGLVPAGIRLIPHTVLTFVFLEQLRKNFGIKVPS
On to B4, for which the C-term flag is 6, the “N-term FLAG” value turned out to be 5, the “C-term IgG” value came to 0 and the “N-term IgG” value amounted to 0.

B5: TUBA1C (protein, UniProt Q9BQE3 1-449, looked up)
Tubulin alpha-1C chain: MRECISIHVGQAGVQIGNACWELYCLEHGIQPDGQMPSDKTIGGGDDSFNTFFSETGAGKHVPRAVFVDLEPTVIDEVRTGTYRQLFHPEQLITGKEDAANNYARGHYTIGKEIIDLVLDRIRKLADQCTGLQGFLVFHSFGGGTGSGFTSLLMERLSVDYGKKSKLEFSIYPAPQVSTAVVEPYNSILTTHTTLEHSDCAFMVDNEAIYDICRRNLDIERPTYTNLNRLISQIVSSITASLRFDGALNVDLTEFQTNLVPYPRIHFPLATYAPVISAEKAYHEQLTVAEITNACFEPANQMVKCDPRHGKYMACCLLYRGDVVPKDVNAAIATIKTKRTIQFVDWCPTGFKVGINYQPPTVVPGGDLAKVQRAVCMLSNTTAVAEAWARLDHKFDLMYAKRAFVHWYVGEGMEEGEFSEAREDMAALEKDYEEVGADSADGEDEGEEY
For the molecule B5, the C-term flag is 63, the “N-term FLAG” value is 76, the “C-term IgG” value was 14 and the “N-term IgG” value worked out at 8.

B6: TM9SF3 (protein)
chain: DEHEHTYQDKEEVVLWMNTVGPYHNRQETYKYFSLPFCVGSKKSISHYHETLGEALQGVELEFSGLDIKFKDDVMPATYCEIDLDKEKRDAFVYAIKNHYWYQMYIDDLPIWGIVGEADENGEDYYLWTYKKLEIGFNGNRIVDVNLTSEGKVKLVPNTKIQMSYSVKWKKSDVKFEDRFDKYLDPSFFQHRIHWFSIFNSFMMVIFLVGLVSMILMRTLRKDYARYSKEEEMDDMDRDLGDEYGWKQVHGDVFRPSSHPLIFSSLIGSGCQIFAVSLIVIIVAMIEDLYTERGSMLSTAIFVYAATSPVNGYFGGSLYARQGGRRWIKQMFIGAFLIPAMVCGTAFFINFIAIYYHASRAIPFGTMVAVCCICFFVILPLNLVGTILGRNLSGQPNFPCRVNAVPRPIPEKKWFMEPAVIVCLGGILPFGSIFIEMYFIFTSFWAYKIYYVYGFMMLVLVILCIVTVCVTIVCTYFLLNAEDYRWQWTSFLSAASTAIYVYMYSFYYYFFKTKMYGLFQTSFYFGYMAVFSTALGIMCGAIGYMGTSAFVRKIYTNVKID
B6: the C-term flag was 11, the “N-term FLAG” value is given as 0, the “C-term IgG” value worked out at 0 and the “N-term IgG” value came to 0.

B7: SLC25A22 (protein)
chain: MADKQISLPAKLINGGIAGLIGVTCVFPIDLAKTRLQNQQNGQRVYTSMSDCLIKTVRSEGYFGMYRGAAVNLTLVTPEKAIKLAANDFFRHQLSKDGQKLTLLKEMLAGCGAGTCQVIVTTPMEMLKIQLQDAGRIAAQRKILAAQGQLSAQGGAQPSVEAPAAPRPTATQLTRDLLRSRGIAGLYKGLGATLLRDVPFSVVYFPLFANLNQLGRPASEEKSPFYVSFLAGCVAGSAAAVAVNPCDVVKTRLQSLQRGVNEDTYSGILDCARKILRHEGPSAFLKGAYCRALVIAPLFGIAQVVYFLGIAESLLGLLQDPQA
As to B7, the C-term flag amounted to 2, the “N-term FLAG” value stood at 0, the “C-term IgG” value is listed as 0 and the “N-term IgG” value is recorded as 0.

B8: ACSL3 (protein)
chain: MNNHVSSKPSTMKLKHTINPILLYFIHFLISLYTILTYIPFYFFSESRQEKSNRIKAKPVNSKPDSAYRSVNSLDGLASVLYPGCDTLDKVFTYAKNKFKNKRLLGTREVLNEEDEVQPNGKIFKKVILGQYNWLSYEDVFVRAFNFGNGLQMLGQKPKTNIAIFCETRAEWMIAAQACFMYNFQLVTLYATLGGPAIVHALNETEVTNIITSKELLQTKLKDIVSLVPRLRHIITVDGKPPTWSEFPKGIIVHTMAAVEALGAKASMENQPHSKPLPSDIAVIMYTSGSTGLPKGVMISHSNIIAGITGMAERIPELGEEDVYIGYLPLAHVLELSAELVCLSHGCRIGYSSPQTLADQSSKIKKGSKGDTSMLKPTLMAAVPEIMDRIYKNVMNKVSEMSSFQRNLFILAYNYKMEQISKGRNTPLCDSFVFRKVRSLLGGNIRLLLCGGAPLSATTQRFMNICFCCPVGQGYGLTESAGAGTISEVWDYNTGRVGAPLVCCEIKLKNWEEGGYFNTDKPHPRGEILIGGQSVTMGYYKNEAKTKADFFEDENGQRWLCTGDIGEFEPDGCLKIIDRKKDLVKLQAGEYVSLGKVEAALKNLPLVDNICAYANSYHSYVIGFVVPNQKELTELARKKGLKGTWEELCNSCEMENEVLKVLSEAAISASLEKFEIPVKIRLSPEPWTPETGLVTDAFKLKRKELKTHYQADIERMYGRK
As to B8, the C-term flag was 5, the “N-term FLAG” value is 5, the “C-term IgG” value is reported as 0 and the “N-term IgG” value amounted to 0.
